Tested on: MS2 coat protein
Experiment: apparent KD of MS2 coat protein; designed switch direction (-1 OFF switch, 1 ON switch): -1; higher = weaker reporter binding
Summary of the method: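 Each step of the titration lasted 0.8–1.5 h at the lowest concentration and 10–20 min at the highest. The protein, SNAP-549-labelled MS2 coat protein, went from 0.7 or 1.5 nM doubling to 3 µM over RNA switches transcribed on Illumina chips by stalled E. coli RNA polymerase. Normalised cluster fluorescence was curve-fitted, and the per-design median over clusters is given as apparent KD.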

[1] = Eterna round: R95, input ligand: FMN 200 uM
[2] = Eterna round: R95, input ligand: microRNA oligo, concentration not stated
[3] = Eterna round: R95, input ligand: none
[4] = input ligand: microRNA oligo, concentration not stated

Sequence	apparent KD of MS2 coat protein (input ligand: FMN 200 uM) [nM]	apparent KD of MS2 coat protein (input ligand: none) [nM]	apparent KD of MS2 coat protein [1] [nM]	apparent KD of MS2 coat protein [2] [nM]	apparent KD of MS2 coat protein [3] [nM]	apparent KD of MS2 coat protein [4] [nM]
GAUUAGGUAGGAUAUACGUAGUGAGCCAGCGAGAGCUGGUAACAUGAGGAUCACCCAUGUAGAAGGACCAUUAA [Xeorqulaus] (Eterna round: R97, puzzle: Exclusion 2)	145	72.4				
UGGGUUCUCCAUAGAAGUAACAUGAGGAUCACCCAUGUAGGGCAAGUUUUUUGCUCGUCAUAGGUUGUGGGUUUGGA [JR_SV3TOV1_Sub018] (puzzle: Sensor v3, turn-off variant 1)			578	491	660	
GGAUCUACUGAGGAUAUUACAUCACCCGACUGAUAAGAAGGCAGAACAUGAGGAUCACCCAUGUGGGUAGCCAA [Polaris4] (Eterna round: R97, puzzle: Exclusion 6)	25.7	21.3				
CCUUAGGGAGGAUAUACAUGAGGAUCACCCAUGUACCGCGGCGCGUUCACACGGGUGGGUAGAAGGCCCUCACU [Colors] (Eterna round: R97, puzzle: Exclusion 3)	463	540				
GCAUGAAUGUAGGAUAUCUGUAGGGCCCGGACCAGAGAAGGACGCACAUGAGGAUCACCCAUGUCUUGAUGAUC [Eternabot (L1) Solution 15] (Eterna round: R97, puzzle: Exclusion 6)	540	239				
CUUGUUUAUGUAGGAUAUGCCUGGCGUGCCUUUGCAGAAGGACAUGAGGAUCACCCAUGUGGUAUGAGGCUUACCCUUGUCGCC [salish99_ExNG1_r04_121] (Eterna round: R96, puzzle: Exclusion NG 1)	30.6	28.9				21.1
AGUACUAACACGUCAGUGUUAGUACAAUAAGCUUGUGAAACAUGAGGAUCACCCAUGUCCUCAUAAGCUCGUCUUAU [salish99_TOv2_r3_062] (puzzle: Sensor v3, turn-off variant 2)			17.3	602	16.1	
AUACCCAGAGGAUAUGCCGCUGGGUGCCCUCUGCAUAAAACACUUGAGGAUCACCCAAGUAGAAGGCUGGGCUC [Leiseses] (Eterna round: R97, puzzle: Exclusion 2)	173	78.1				
UUUUUGUGAGGAUAUCAGUAGUAGAACAAUAGUACUACUACUGAGAAGGCACAUGAGGAUCACCCAUGUUCUUC [Fiskers Ex 4 Super stable 44 mod 11] (puzzle: Exclusion 4)				27.1		
GGCACACAUGUAGGAUAUCUGCACGAUUAGUGCAGAGAAGGACAUGAGGAUCACCCAUGUAAUUAAGAUCAAUUAUUAAGUGCC [ENG1/3-A1] (Eterna round: R96, puzzle: Exclusion NG 1)	468	54.6				50
AUAAGGCUAGGAUAUGCAUGUGGCACAGCUCAGAAAAUAAGACAUGAGGAUCACCCAUGUAGAAGGAGCAUGCC [EX2 A.30] (Eterna round: R97, puzzle: Exclusion 2)	19.4	16.2				
CGCUGUUGAGGAUAUGGGCGUGGGUACAUGAGGAUCACCCAUGUGUUGUCGCGCGUGGGUCUAGAAGGCGGCGGUG [-29.1, -27.2 kcal, 16% A] (Eterna round: R97, puzzle: Exclusion 5)	12.1	13.8				
UUGCAGUCGUCAGGAUAUAGUAUUACGGCCUUUUAUUUCUUCAUACAUGAGGAUCACCCAUGUCGCUAGAAGGGAUUAUCGAUU [salish99_ExNG2_r04_105] (Eterna round: R96, puzzle: Exclusion NG 2)	17.8	22.2				14.2
CGGGAGGGACAAGCUUUUUGCACGUCUGUUAUUGAUGCUACAUGAGGAUCACCCAUGUUUAGGGUGUGUGAGGAUGG [JR_SV3TOV2_Sub052] (puzzle: Sensor v3, turn-off variant 2)			437	239	571	
CUAUUCCGAGGAUAUACAUGAGGAUCACCCAUGUCGGGCCUCUGCGUUUAGCGCGUAAGUAGAAGGUGGGUUUC [JL Riri mod 8] (puzzle: Exclusion 3)				27.1		
UGUUGUUACGCAGGAUAUGAGGAUCACCCAUAUAAGGAUAUCGAAAGAGAAGGUCUGAGGAUUACCCAGAAGGGCGGGUUAACA [pwkr exNG2 2xF5 2xFMN.29] (Eterna round: R96, puzzle: Exclusion NG 2)	227	115				65.3
CUUUUGUGAGGAUAUUCAUAGUAGGGUCAUGGCAUUAUUAUGAAGAAGGCACAUGAGGAUCACCCAUGUACCUU [EX4 #49] (Eterna round: R97, puzzle: Exclusion 4)	32.8	21.5				

Sequence	apparent KD of MS2 coat protein (input ligand: FMN 200 uM) [nM]	apparent KD of MS2 coat protein (input ligand: none) [nM]	apparent KD of MS2 coat protein [1] [nM]	apparent KD of MS2 coat protein [2] [nM]	apparent KD of MS2 coat protein [3] [nM]	apparent KD of MS2 coat protein [4] [nM]
GUUAAACAUGAGGAUCACCCAUGUAAGGAUAUGCUGCGGUCGCGCUGACGUGACUGCAGCAGAAGGUACAAAUG [Mat - Mod of JL D57] (puzzle: Exclusion 1)				76.4		
AUAGCUCGUGUUAGGAUAUCCGCAUAUUUUACAUAGGAGAAGGAACAUGAGGAUCACCCAUGUAAUAGAAAAGA [Maenri] (puzzle: Brourd's mod of Exclusion 4)			138	101	74.7	
GCCUCACUUGAGGAUCACCCAAGUCAGGAUAUUUGAAAGCAAGCCUAAAACACGCGUAAAAGAAGGGACUUGAA [Armare] (Eterna round: R97, puzzle: Exclusion 1)	30.3	20.9				
CUCAUGCCUGAGGAUAUGCUGUACAAAAGUACUGCAGAAGGCAGAACAUGAGGAUCACCCAUGUGGCGAAAGCC [Omei Ex G1] (Eterna round: R97, puzzle: Exclusion 6)	549	106				
GGUUUGGGAGGAUAUGGUUUUAAUAACAUGAGGAUCACCCAUGUAAAUAGAUCCUCGAGGCCAGAAGGCUCGGGCC [-24.9, -23.72 kcal, A 28%] (Eterna round: R97, puzzle: Exclusion 5)	405	85.7				
GCGGGAAAAGGAUAUGAGAGGUAAUACAUGAGGAUCACCCAUGUGAUAGACUCUGUGCUUUUAGAAGGUUUAUGUC [Eternabot (L1) Solution 19] (Eterna round: R97, puzzle: Exclusion 5)	14.3	15.3				
GGGCUUCAAGUGAGGAUAUCUACGCAGUUGAAGCGAGAGAAGGCACAUGAGGAUCACCCAUGUAUAGAAGAAGA [Rausmausis] (puzzle: Brourd's mod of Exclusion 4)			116	26.5	29.1	
GGGUGUCCAGUGAGGAUAUCCAACGCUAAGGCGCAGGAGAAGGCACAUGAGGAUCACCCAUGUAGCUGAAGAAA [Onerbegeso] (puzzle: Brourd's mod of Exclusion 4)			49.9	14.1	20	
AAUAACAGAGGAUAUGCGAAUAAAUAAAACUUUUUUUUUUAACAUGAGGAUCACCCAUGUAGAAGGCUGAUAUU [Ex2 #21] (Eterna round: R97, puzzle: Exclusion 2)	35.6	37				
GAGAAGUGAGGAUAUACGAUAAGGAUGAAAGGAAGGAAUGAGUAGAAGGCACAUGAGGAUCACCCAUGUAGAGU [JR_Exclu4_Sub079] (puzzle: Exclusion 4)			24.1	25.1	26.3	
UUCGUGCAGCUUUGCUGUACGAGUACAUGAGGAUCACCCAUGUAGGAUAUGGUACGCUUUGCGUGCCAGAAGGACGUGCGUUAG [salish99_ExNG3_r04_002] (Eterna round: R96, puzzle: Exclusion NG 3)	73.4	42.1				34.1
UGUACUAACACGGAAGUGUUAGUACUAUAAGCUUGUGUUACAUGAGGAUCACCCAUGUCCUCAUAAGCUCGUCUUAU [Mat - Sensor v3 - Turn-off var 2 - D74] (puzzle: Sensor v3, turn-off variant 2)			157	53.6	172	
GACAUGAGGAUCACCCAUGUAAGGGAUGAACUUCUGGGUAGCUAGGAUAUGGCUACAAAUGUGGACCAGAAGGAGCAUACCCUA [Didianveon] (Eterna round: R96, puzzle: Exclusion NG 3)	13	16.7				12.7
UACAUGAGGAUCACCCAUGUUUUGUCGUGUAUGGUAUUUAUCUAGGAUAUCAAUUGAUUUAUUUAUGAGAAGGAGAAUAUUAAU [JMF's solution 15] (Eterna round: R96, puzzle: Exclusion NG 3)	42.5	39.5				26.8
GGUAGAGUGGCAGGAUAUCCGUCUGUUUCAGUCGGAGAAGGGCCACAGUCACUGGGUCCAAAUAUGGGUGACCAUGUAUCUACC [pwkr exNG1 F6.4] (Eterna round: R96, puzzle: Exclusion NG 1)	22	34.8				28.4
ACGUACAAGCCGAUCCUAAACAUGAGGAUCACCCAUGUGCUCGUUUUGUAAAGUACUAUCACGAAAGUGAUAGUACA (Eterna round: R97, puzzle: Sensor, turn-off variant 1)	114	122				
GUAGAGUCAGGAUAUACGAGAUCGAAAGAUCGGCGAUCCCUACAUGAGGAUCACCCAUGUAGAAGGGACUCUAC [Eli x2 4.12] (Eterna round: R97, puzzle: Exclusion 2)	28.7	14.9				
